Data taken from the Human Domainome abundance scans (Beltran et al. 2025).
± gives the uncertainty stated by the source.

B1: Segment polarity protein dishevelled homolog DVL-3, residues 2 to 81; numbered along this chain, Q92997 (parent)
chain: GETKIIYHLDGQETPYLVKLPLPAERVTLADFKGVLQRPSYKFFFKSMDDDFGVVKEEISDDNAKLPCFNGRVVSWLVSA

Variants of: B1
Test: abundance fitness (aPCA) (normalised: wild type 0, dead -1); higher = more abundant; growth selection in yeast, the domain comes from the species named
Settings: Homo sapiens

| Variant | abundance fitness |
| --- | --- |
| V27C | -0.119 ± 0.079 |
| S40C | 0.045 ± 0.073 |
| L29M | -0.71 ± 0.15 |
| F45T | -0.596 ± 0.099 |
| T3R | -0.665 ± 0.075 |
| P21Q | -0.269 ± 0.084 |
| D31E | -0.178 ± 0.081 |
| Q37C | -0.078 ± 0.073 |
| S60N | -0.111 ± 0.12 |
| K56L | -0.094 ± 0.051 |
| F44A | -0.614 ± 0.083 |
| K56P | -0.496 ± 0.089 |
| G53W | -0.458 ± 0.085 |
| N70W | -0.634 ± 0.23 |
| E58H | -0.227 ± 0.14 |
| G53R | 0.382 ± 0.036 |
| S47H | -0.207 ± 0.11 |
| L22V | 0.059 ± 0.047 |
| E2C | -0.038 ± 0.08 |
| N63A | -0.184 ± 0.057 |
| K33L | -0.936 ± 0.13 |
| F69R | -0.272 ± 0.073 |
| G71N | -0.351 ± 0.086 |
| P21C | -0.391 ± 0.094 |

| Variant | abundance fitness |
| --- | --- |
| S79D | 0.079 ± 0.065 |
| F43M | -0.291 ± 0.097 |
| R38T | 0.187 ± 0.064 |
| I5E | -0.767 ± 0.11 |
| R26L | -0.081 ± 0.05 |
| N70Q | -0.341 ± 0.19 |
| G1F | 0.109 ± 0.23 |
| V18T | -0.33 ± 0.079 |
| L20K | -0.666 ± 0.13 |
| P15N | -0.529 ± 0.17 |
| V54C | 0.01 ± 0.075 |
| S79C | -0.228 ± 0.083 |
| L17F | 0.328 ± 0.068 |
| L9Y | -0.581 ± 0.15 |
| D50A | -0.15 ± 0.068 |
| T14M | -0.265 ± 0.086 |
| V35F | -0.031 ± 0.12 |
| V54S | -0.082 ± 0.055 |
| L17A | -0.098 ± 0.057 |
| L77V | -0.064 ± 0.065 |
| V18K | -0.601 ± 0.13 |
| V54N | -0.005 ± 0.11 |
| P23K | -0.671 ± 0.12 |
| K46R | -0.08 ± 0.045 |

| Variant | abundance fitness |
| --- | --- |
| L36M | -0.465 ± 0.12 |
| M48R | 0.204 ± 0.039 |
| Y7C | -0.663 ± 0.14 |
| S75V | -0.161 ± 0.058 |
| P21L | -0.758 ± 0.088 |
| D61E | -0.257 ± 0.062 |
| L29I | -0.675 ± 0.19 |
| H8R | -0.326 ± 0.062 |
| L66C | -0.923 ± 0.19 |
| W76P | -0.625 ± 0.13 |
| R26T | -0.188 ± 0.079 |
| D62Q | -0.603 ± 0.13 |
| F43K | -0.644 ± 0.12 |
| A30L | -0.562 ± 0.08 |
| W76G | -0.648 ± 0.079 |
| I6F | -0.015 ± 0.08 |
| E58G | -0.733 ± 0.073 |
| F32A | -0.622 ± 0.1 |
| L29D | -0.97 ± 0.21 |
| G71M | -1.4 ± 0.48 |
| T28N | -0.715 ± 0.15 |
| L9S | -0.366 ± 0.068 |
| S47T | 0.325 ± 0.057 |
| V78Q | -0.486 ± 0.21 |

| Variant | abundance fitness |
| --- | --- |
| K46F | -0.488 ± 0.26 |
| T28V | -0.574 ± 0.073 |
| P23A | -0.395 ± 0.089 |
| V54F | 0.136 ± 0.076 |
| S40Y | 0.121 ± 0.092 |
| Y16I | 0.216 ± 0.092 |
| F69H | 0.001 ± 0.076 |
| T3H | -0.831 ± 0.18 |
| M48K | 0.039 ± 0.072 |
| E57N | -0.276 ± 0.14 |
| G1T | -0.198 ± 0.12 |
| V54I | 0.175 ± 0.09 |
| L36K | -0.725 ± 0.17 |
| V74G | -0.716 ± 0.1 |
| E58R | -0.676 ± 0.069 |
| A80E | 0.191 ± 0.33 |
| H8A | -0.772 ± 0.11 |
| I6D | -0.585 ± 0.13 |
| L22T | -0.598 ± 0.11 |
| T3N | -0.822 ± 0.18 |
| Q12H | 0.134 ± 0.075 |
| K46Y | -0.401 ± 0.14 |
| E2K | -0.723 ± 0.13 |
| E57T | 0.441 ± 0.052 |

| Variant | abundance fitness |
| --- | --- |
| D31I | -0.173 ± 0.13 |
| V55P | -0.895 ± 0.14 |
| L66R | -0.706 ± 0.067 |
| Q12A | -0.129 ± 0.068 |
| L77T | -0.243 ± 0.099 |
| K19R | -0.132 ± 0.046 |
| S47E | -0.726 ± 0.12 |
| G53E | 0.209 ± 0.051 |
| I59Y | -0.655 ± 0.19 |
| L66Y | -0.508 ± 0.14 |
| S79Q | -0.248 ± 0.098 |
| K65F | -0.284 ± 0.15 |
| M48F | -0.121 ± 0.1 |
| R38Y | -0.188 ± 0.12 |
| I59F | -0.592 ± 0.27 |
| K65S | -0.195 ± 0.068 |
| F52Q | 0.268 ± 0.057 |
| R38S | 0.159 ± 0.053 |
| G34Q | 0.166 ± 0.076 |
| V54L | -0.083 ± 0.053 |
| D51I | -0.202 ± 0.094 |
| G1C | -0.13 ± 0.13 |
| R26V | -0.08 ± 0.057 |
| A80Y | -0.405 ± 0.19 |

| Variant | abundance fitness |
| --- | --- |
| P15T | -0.058 ± 0.065 |
| Y41E | -0.486 ± 0.09 |
| R38A | 0.009 ± 0.064 |
| E58P | -0.95 ± 0.16 |
| K65C | -0.183 ± 0.13 |
| T14L | -0.328 ± 0.061 |
| Y16C | 0.041 ± 0.073 |
| D61P | -0.566 ± 0.12 |
| V73G | -0.681 ± 0.099 |
| F69T | -0.352 ± 0.1 |
| Y7I | -0.74 ± 0.14 |
| Y41V | -0.388 ± 0.054 |
| V73L | -0.56 ± 0.1 |
| Y16E | -0.167 ± 0.065 |
| I6K | -0.892 ± 0.13 |
| G71A | -0.782 ± 0.15 |
| H8W | 0.027 ± 0.063 |
| L29C | -0.287 ± 0.12 |
| H8F | 0.23 ± 0.078 |
| T28Q | -0.811 ± 0.13 |
| L77H | -0.536 ± 0.18 |
| F45P | -0.581 ± 0.1 |
| R38E | 0.13 ± 0.066 |
| N63E | 0.009 ± 0.059 |

| Variant | abundance fitness |
| --- | --- |
| V78E | -0.008 ± 0.099 |
| Y16T | -0.15 ± 0.07 |
| E2T | -0.079 ± 0.066 |
| C68M | -0.22 ± 0.13 |
| E58Y | -0.801 ± 0.19 |
| F32N | -1.28 ± 0.45 |
| Q37H | -0.073 ± 0.096 |
| K19T | 0.271 ± 0.054 |
| T14A | -0.123 ± 0.063 |
| E58K | -0.652 ± 0.15 |
| Q37T | -0.067 ± 0.065 |
| T3M | -0.683 ± 0.12 |
| A64P | -0.663 ± 0.12 |
| P39W | -0.466 ± 0.081 |
| I59R | -0.746 ± 0.065 |
| G53C | 0.2 ± 0.065 |
| L22K | -0.019 ± 0.068 |
| D62V | -0.674 ± 0.096 |
| K65D | -0.914 ± 0.22 |
| I5L | -0.698 ± 0.085 |
| L77G | -0.572 ± 0.11 |
| D51M | -0.279 ± 0.12 |
| N63H | -0.093 ± 0.12 |
